Results: publication PMC3439905

Molecular target: human alpha-thrombin (CD samples) (Homo sapiens, UniProt P00734;P00734 328-363;364-622)
Experiment: CD thermal denaturation at 295 nm

B1: TBA (thrombin-binding aptamer) (structured_DNA)
DNA: GGTTGGTGTGGTTGG
- binding result: binds
